Experimental data as given in patent US20260242735A1 (UNIVERSIT T BASEL, published 2026).

Tests used:
Experiment in all cases: alanine scan, flow cytometry, HEK293-T;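 also: antibody binding to each alanine-substituted CD33 mutant expressed transiently in HEK293-T, read as fluorescence minus background, mean of duplicates, relative to wild-type CD33 set as 100%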
human CD33 S102A = human CD33 S102A (human, UniProt P20138 18-364)
human CD33 R109A = human CD33 R109A (human, UniProt P20138 18-364)
human CD33 K52A = human CD33 K52A (human, UniProt P20138 18-364)
Sequence of human CD33 K52A (P20138 18-364 K52A limits assumed): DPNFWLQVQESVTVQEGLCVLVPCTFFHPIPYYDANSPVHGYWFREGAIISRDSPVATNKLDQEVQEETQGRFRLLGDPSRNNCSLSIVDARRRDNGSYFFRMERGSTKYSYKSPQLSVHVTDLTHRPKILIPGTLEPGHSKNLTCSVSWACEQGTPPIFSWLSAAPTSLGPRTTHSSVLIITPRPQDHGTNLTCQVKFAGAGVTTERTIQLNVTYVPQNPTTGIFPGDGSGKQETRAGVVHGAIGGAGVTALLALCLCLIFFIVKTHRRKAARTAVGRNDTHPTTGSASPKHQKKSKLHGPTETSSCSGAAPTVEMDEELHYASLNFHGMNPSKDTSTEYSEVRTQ

human CD33 S71A = human CD33 S71A (human, UniProt P20138 18-364)
Sequence of human CD33 S71A (P20138 18-364 S71A limits assumed): as the sequence (P20138 18-364 K52A limits assumed) above, with A35K, S54A counted along it

human CD33 I67A = human CD33 I67A (human, UniProt P20138 18-364)
Sequence of human CD33 I67A (P20138 18-364 I67A limits assumed): as the sequence (P20138 18-364 K52A limits assumed) above, with A35K, I50A counted along it

human CD33 D79A = human CD33 D79A (human, UniProt P20138 18-364)
Sequence of human CD33 D79A (P20138 18-364 D79A limits assumed): as the sequence (P20138 18-364 K52A limits assumed) above, with A35K, D62A counted along it

human CD33 C101A = human CD33 C101A (human, UniProt P20138 18-364)
Sequence of human CD33 C101A (P20138 18-364 C101A limits assumed): as the sequence (P20138 18-364 K52A limits assumed) above, with A35K, C84A counted along it

human CD33 I66A = human CD33 I66A (human, UniProt P20138 18-364)
Sequence of human CD33 I66A (P20138 18-364 I66A limits assumed): as the sequence (P20138 18-364 K52A limits assumed) above, with A35K, I49A counted along it

human CD33 G58A = human CD33 G58A (human, UniProt P20138 18-364)
Sequence of human CD33 G58A (P20138 18-364 G58A limits assumed): as the sequence (P20138 18-364 K52A limits assumed) above, with A35K, G41A counted along it

human CD33 D51A = human CD33 D51A (human, UniProt P20138 18-364)
Sequence of human CD33 D51A (P20138 18-364 D51A limits assumed): as the sequence (P20138 18-364 K52A limits assumed) above, with D34A, A35K counted along it

human CD33 N113A = human CD33 N113A (human, UniProt P20138 18-364)
Sequence of human CD33 N113A (P20138 18-364 N113A limits assumed): as the sequence (P20138 18-364 K52A limits assumed) above, with A35K, N96A counted along it

human CD33 R91A = human CD33 R91A (human, UniProt P20138 18-364)
Sequence of human CD33 R91A (P20138 18-364 R91A limits assumed): as the sequence (P20138 18-364 K52A limits assumed) above, with A35K, R74A counted along it

human CD33 D95A = human CD33 D95A (human, UniProt P20138 18-364)
Sequence of human CD33 D95A (P20138 18-364 D95A limits assumed): as the sequence (P20138 18-364 K52A limits assumed) above, with A35K, D78A counted along it

human CD33 S104A = human CD33 S104A (human, UniProt P20138 18-364)
Sequence of human CD33 S104A (P20138 18-364 S104A limits assumed): as the sequence (P20138 18-364 K52A limits assumed) above, with A35K, S87A counted along it

human CD33 E63A = human CD33 E63A (human, UniProt P20138 18-364)
Sequence of human CD33 E63A (P20138 18-364 E63A limits assumed): as the sequence (P20138 18-364 K52A limits assumed) above, with A35K, E46A counted along it

human CD33 P72A = human CD33 P72A (human, UniProt P20138 18-364)
Sequence of human CD33 P72A (P20138 18-364 P72A limits assumed): as the sequence (P20138 18-364 K52A limits assumed) above, with A35K, P55A counted along it

human CD33 P46A = human CD33 P46A (human, UniProt P20138 18-364)
Sequence of human CD33 P46A (P20138 18-364 P46A limits assumed): as the sequence (P20138 18-364 K52A limits assumed) above, with P29A, A35K counted along it

human CD33 S68A = human CD33 S68A (human, UniProt P20138 18-364)
Sequence of human CD33 S68A (P20138 18-364 S68A limits assumed): as the sequence (P20138 18-364 K52A limits assumed) above, with A35K, S51A counted along it

human CD33 P189A = target: T1, human CD33 P189A (human, UniProt P20138 18-364)
T1 construct: alanine scan clone, transfected HEK293-T
T1 sequence (P20138 18-364 P189A limits assumed): as the sequence (P20138 18-364 K52A limits assumed) above, with A35K, P172A counted along it

human CD33 S164A = target: T2, human CD33 S164A (human, UniProt P20138 18-364)
T2 construct: alanine scan clone, transfected HEK293-T
T2 sequence (P20138 18-364 S164A limits assumed): as the sequence (P20138 18-364 K52A limits assumed) above, with A35K, S147A counted along it

human CD33 P184A = target: T3, human CD33 P184A (human, UniProt P20138 18-364)
T3 construct: alanine scan clone, transfected HEK293-T
T3 sequence (P20138 18-364 P184A limits assumed): as the sequence (P20138 18-364 K52A limits assumed) above, with A35K, P167A counted along it

human CD33 R144A = target: T4, human CD33 R144A (human, UniProt P20138 18-364)
T4 construct: alanine scan clone, transfected HEK293-T
T4 sequence (P20138 18-364 R144A limits assumed): as the sequence (P20138 18-364 K52A limits assumed) above, with A35K, R127A counted along it

human CD33 A183S = target: T5, human CD33 A183S (human, UniProt P20138 18-364)
T5 construct: alanine scan clone, transfected HEK293-T
T5 sequence (P20138 18-364 A183S limits assumed): as the sequence (P20138 18-364 K52A limits assumed) above, with A35K, A166S counted along it

human CD33 L161A = target: T6, human CD33 L161A (human, UniProt P20138 18-364)
T6 construct: alanine scan clone, transfected HEK293-T
T6 sequence (P20138 18-364 L161A limits assumed): as the sequence (P20138 18-364 K52A limits assumed) above, with A35K, L144A counted along it

human CD33 S186A = target: T7, human CD33 S186A (human, UniProt P20138 18-364)
T7 construct: alanine scan clone, transfected HEK293-T
T7 sequence (P20138 18-364 S186A limits assumed): as the sequence (P20138 18-364 K52A limits assumed) above, with A35K, S169A counted along it

human CD33 A182S = target: T8, human CD33 A182S (human, UniProt P20138 18-364)
T8 construct: alanine scan clone, transfected HEK293-T
T8 sequence (P20138 18-364 A182S limits assumed): as the sequence (P20138 18-364 K52A limits assumed) above, with A35K, A165S counted along it

human CD33 K159A = target: T9, human CD33 K159A (human, UniProt P20138 18-364)
T9 construct: alanine scan clone, transfected HEK293-T
T9 sequence (P20138 18-364 K159A limits assumed): as the sequence (P20138 18-364 K52A limits assumed) above, with A35K, K142A counted along it

human CD33 P175A = target: T10, human CD33 P175A (human, UniProt P20138 18-364)
T10 construct: alanine scan clone, transfected HEK293-T
T10 sequence (P20138 18-364 P175A limits assumed): as the sequence (P20138 18-364 K52A limits assumed) above, with A35K, P158A counted along it

human CD33 P145A = target: T11, human CD33 P145A (human, UniProt P20138 18-364)
T11 construct: alanine scan clone, transfected HEK293-T
T11 sequence (P20138 18-364 P145A limits assumed): as the sequence (P20138 18-364 K52A limits assumed) above, with A35K, P128A counted along it

human CD33 D140A = target: T12, human CD33 D140A (human, UniProt P20138 18-364)
T12 construct: alanine scan clone, transfected HEK293-T
T12 sequence (P20138 18-364 D140A limits assumed): as the sequence (P20138 18-364 K52A limits assumed) above, with A35K, D123A counted along it

human CD33 S195A = target: T13, human CD33 S195A (human, UniProt P20138 18-364)
T13 construct: alanine scan clone, transfected HEK293-T
T13 sequence (P20138 18-364 S195A limits assumed): as the sequence (P20138 18-364 K52A limits assumed) above, with A35K, S178A counted along it

human CD33 G188A = target: T14, human CD33 G188A (human, UniProt P20138 18-364)
T14 construct: alanine scan clone, transfected HEK293-T
T14 sequence (P20138 18-364 G188A limits assumed): as the sequence (P20138 18-364 K52A limits assumed) above, with A35K, G171A counted along it

human CD33 P150A = target: T15, human CD33 P150A (human, UniProt P20138 18-364)
T15 construct: alanine scan clone, transfected HEK293-T
T15 sequence (P20138 18-364 P150A limits assumed): as the sequence (P20138 18-364 K52A limits assumed) above, with A35K, P133A counted along it

human CD33 S181A = target: T16, human CD33 S181A (human, UniProt P20138 18-364)
T16 construct: alanine scan clone, transfected HEK293-T
T16 sequence (P20138 18-364 S181A limits assumed): as the sequence (P20138 18-364 K52A limits assumed) above, with A35K, S164A counted along it

human CD33 L153A = target: T17, human CD33 L153A (human, UniProt P20138 18-364)
T17 construct: alanine scan clone, transfected HEK293-T
T17 sequence (P20138 18-364 L153A limits assumed): as the sequence (P20138 18-364 K52A limits assumed) above, with A35K, L136A counted along it

human CD33 Y127A = target: T18, human CD33 Y127A (human, UniProt P20138 18-364)
T18 construct: alanine scan clone, transfected HEK293-T
T18 sequence (P20138 18-364 Y127A limits assumed): as the sequence (P20138 18-364 K52A limits assumed) above, with A35K, Y110A counted along it

Sequence of human CD33 S102A (P20138 18-364 S102A limits assumed): as the sequence (P20138 18-364 K52A limits assumed) above, with A35K, S85A counted along it
Sequence of human CD33 R109A (P20138 18-364 R109A limits assumed): as the sequence (P20138 18-364 K52A limits assumed) above, with A35K, R92A counted along it

B1: Refmab #5 (antibody, V domains shown)
VH: QVQLVQSGAEVKKPGASVKVSCKASGYTFTNYDINWVRQAPGQGLEWIGWIYPGDGSTKYNEKFKAKATLTADTSTSTAYMELRSLRSDDTAVYYCASGYEDAMDYWGQGTTVTVSS
VL: DIQMTQSPSSLSASVGDRVTINCKASQDINSYLSWFQQKPGKAPKTLIYRANRLVDGVPSRFSGSGSGQDYTLTISSLQPEDFATYYCLQYDEFPLTFGGGTKVEIK
notes: Full-length format is human IgG1 Fc silent (PG-LALA); also made as Fab; The alanine scan used IgG or Fab
With B1 the “Mean % WT Binding” value (human CD33 S102A) was 154 % WT binding, the “Mean % WT Binding” value (human CD33 R109A) was 103 % WT binding and the “Mean % WT Binding” value (human CD33 K52A) was 11.9 % WT binding. The “Mean % WT Binding” value (human CD33 S71A) was 150 % WT binding, the “Mean % WT Binding” value (human CD33 I67A) was 157 % WT binding and the “Mean % WT Binding” value (human CD33 D79A) was 91.3 % WT binding. For the same binder, the “Mean % WT Binding” value (human CD33 C101A) was 23 % WT binding, the “Mean % WT Binding” value (human CD33 I66A) was 105 % WT binding and the “Mean % WT Binding” value (human CD33 G58A) was 112 % WT binding. For the same binder, the “Mean % WT Binding” value (human CD33 D51A) was 105 % WT binding, the “Mean % WT Binding” value (human CD33 N113A) was 64 % WT binding and the “Mean % WT Binding” value (human CD33 R91A) was 101 % WT binding. The “Mean % WT Binding” value (human CD33 D95A) was 122 % WT binding, the “Mean % WT Binding” value (human CD33 S104A) was 109 % WT binding and the “Mean % WT Binding” value (human CD33 E63A) was 140 % WT binding. For the same binder, the “Mean % WT Binding” value (human CD33 P72A) was 116 % WT binding, the “Mean % WT Binding” value (human CD33 P46A) was 79.1 % WT binding and the “Mean % WT Binding” value (human CD33 S68A) was 142 % WT binding.

B2: Refmab #6 (antibody, V domains shown)
VH: QVQLQQPGAEVVKPGASVKMSCKASGYTFTSYYIHWIKQTPGQGLEWVGVIYPGNDDISYNQKFQGKATLTADKSSTTAYMQLSSLTSEDSAVYYCAREVRLRYFDVWGQGTTVTVSS
VL: EIVLTQSPGSLAVSPGERVTMSCKSSQSVFFSSSQKNYLAWYQQIPGQSPRLLIYWASTRESGVPDRFTGSGSGTDFTLTISSVQPEDLAIYYCHQYLSSRTFGQGTKLEIK
notes: as for B1
In the case of B2, the “Mean % WT Binding” value (human CD33 S102A) is reported as 85.1 % WT binding, the “Mean % WT Binding” value (human CD33 R109A) is reported as 107 % WT binding and the “Mean % WT Binding” value (human CD33 K52A) is reported as 77 % WT binding. The “Mean % WT Binding” value (human CD33 S71A) was 99.4 % WT binding, the “Mean % WT Binding” value (human CD33 I67A) was 108 % WT binding and the “Mean % WT Binding” value (human CD33 D79A) was 78.2 % WT binding. For the same binder, the “Mean % WT Binding” value (human CD33 C101A) was 6.2 % WT binding, the “Mean % WT Binding” value (human CD33 I66A) was 93.7 % WT binding and the “Mean % WT Binding” value (human CD33 G58A) was 73.9 % WT binding. For the same binder, the “Mean % WT Binding” value (human CD33 D51A) was 61.7 % WT binding, the “Mean % WT Binding” value (human CD33 N113A) was 89.7 % WT binding and the “Mean % WT Binding” value (human CD33 R91A) was 91.4 % WT binding. For the same binder, the “Mean % WT Binding” value (human CD33 D95A) was 86.3 % WT binding, the “Mean % WT Binding” value (human CD33 S104A) was 90.9 % WT binding and the “Mean % WT Binding” value (human CD33 E63A) was 90.9 % WT binding. The “Mean % WT Binding” value (human CD33 P72A) was 92.3 % WT binding, the “Mean % WT Binding” value (human CD33 P46A) was 49.3 % WT binding and the “Mean % WT Binding” value (human CD33 S68A) was 86.4 % WT binding.

B3: Refmab #5 (antibody, V domains shown)
VH: QVQLVQSGAEVKKPGASVKVSCKASGYTFTNYDINWVRQAPGQGLEWIGWIYPGDGSTKYNEKFKAKATLTADTSTSTAYMELRSLRSDDTAVYYCASGYEDAMDYWGQGTTVTVSS
VL: DIQMTQSPSSLSASVGDRVTINCKASQDINSYLSWFQQKPGKAPKTLIYRANRLVDGVPSRFSGSGSGQDYTLTISSLQPEDFATYYCLQYDEFPLTFGGGTKVEIK
notes: The alanine scan used IgG or Fab
In the case of B3, the “Mean % WT Binding” value (human CD33 P189A) is reported as 115 % WT binding, the “Mean % WT Binding” value (human CD33 S164A) is reported as 110 % WT binding and the “Mean % WT Binding” value (human CD33 P184A) is reported as 107 % WT binding. The “Mean % WT Binding” value (human CD33 R144A) was 71 % WT binding, the “Mean % WT Binding” value (human CD33 A183S) was 101 % WT binding and the “Mean % WT Binding” value (human CD33 L161A) was 130 % WT binding. For the same binder, the “Mean % WT Binding” value (human CD33 S186A) was 112 % WT binding, the “Mean % WT Binding” value (human CD33 A182S) was 103 % WT binding and the “Mean % WT Binding” value (human CD33 K159A) was 148 % WT binding. For the same binder, the “Mean % WT Binding” value (human CD33 P175A) was 130 % WT binding, the “Mean % WT Binding” value (human CD33 P145A) was 82.9 % WT binding and the “Mean % WT Binding” value (human CD33 D140A) was 118 % WT binding. For the same binder, the “Mean % WT Binding” value (human CD33 S195A) was 117 % WT binding, the “Mean % WT Binding” value (human CD33 G188A) was 114 % WT binding and the “Mean % WT Binding” value (human CD33 P150A) was 132 % WT binding. The “Mean % WT Binding” value (human CD33 S181A) was 128 % WT binding, the “Mean % WT Binding” value (human CD33 L153A) was 101 % WT binding and the “Mean % WT Binding” value (human CD33 Y127A) was 199 % WT binding.

B4: Refmab #6 (antibody, V domains shown)
VH: QVQLQQPGAEVVKPGASVKMSCKASGYTFTSYYIHWIKQTPGQGLEWVGVIYPGNDDISYNQKFQGKATLTADKSSTTAYMQLSSLTSEDSAVYYCAREVRLRYFDVWGQGTTVTVSS
VL: EIVLTQSPGSLAVSPGERVTMSCKSSQSVFFSSSQKNYLAWYQQIPGQSPRLLIYWASTRESGVPDRFTGSGSGTDFTLTISSVQPEDLAIYYCHQYLSSRTFGQGTKLEIK
notes: as for B3
In the case of B4, the “Mean % WT Binding” value (human CD33 P189A) is reported as 103 % WT binding, the “Mean % WT Binding” value (human CD33 S164A) is reported as 100 % WT binding and the “Mean % WT Binding” value (human CD33 P184A) is reported as 92.2 % WT binding. The “Mean % WT Binding” value (human CD33 R144A) was 104 % WT binding, the “Mean % WT Binding” value (human CD33 A183S) was 92.3 % WT binding and the “Mean % WT Binding” value (human CD33 L161A) was 100 % WT binding. For the same binder, the “Mean % WT Binding” value (human CD33 S186A) was 110 % WT binding, the “Mean % WT Binding” value (human CD33 A182S) was 93.9 % WT binding and the “Mean % WT Binding” value (human CD33 K159A) was 123 % WT binding. The “Mean % WT Binding” value (human CD33 P175A) was 98.6 % WT binding, the “Mean % WT Binding” value (human CD33 P145A) was 89.7 % WT binding and the “Mean % WT Binding” value (human CD33 D140A) was 104 % WT binding. The “Mean % WT Binding” value (human CD33 S195A) was 113 % WT binding, the “Mean % WT Binding” value (human CD33 G188A) was 100 % WT binding and the “Mean % WT Binding” value (human CD33 P150A) was 106 % WT binding. For the same binder, the “Mean % WT Binding” value (human CD33 S181A) was 102 % WT binding, the “Mean % WT Binding” value (human CD33 L153A) was 94.3 % WT binding and the “Mean % WT Binding” value (human CD33 Y127A) was 42 % WT binding.
